Data as given in article PMC6783313 (Nature structural & molecular biology, 2019).

B1: ClpP2(S98A) from Listeria monocytogenes (natural protein)
chain: not shown
B2: ClpX(E183Q) from Listeria monocytogenes (natural protein)
chain: not shown

How the values were obtained:
cryo-EM structure = target: the molecule itself; assay: cryo-EM structure
[1] = target: B2; assay: HDX-MS

Binder | stoichiometry N (cryo-EM structure) | binding result [1]
B1 | 7 | binds
B2 | 6 | –
